Paper PMC3236217
Blank lines part the entries; values can stand above or below the molecule they belong to.

Key:
inactive ERK2 = inactive ERK2 (UniProt P63086); experiment: pull-down; 9 µg active phosphorylated (without or with 1 mM ATP) or inactive ERK2 covalently attached to CNBr-activated Sepharose, 3 µg purified arrestin in 60 µl of 50 mM Tris-HCl pH 7.4, 100 mM KCl, 1 mM EGTA, 1 mM DTT, 20 min at 30°C; two washes; bound arrestin quantified by Western blot
[1] = target: T1, active ERK2 phosphorylated at Thr183 and Tyr185 (PP-ERK2), P63086; experiment: pull-down on ERK2-Sepharose (CNBr-activated Sepharose with covalently attached ERK2), bound arrestin quantified by Western blot; settings: chain shown with the change, 9 µg immobilised ERK2, 3 µg arrestin in 60 µl, 50 mM Tris-HCl, pH 7.4, 100 mM KCl, 1 mM EGTA, 1 mM DTT, 20 min at 30°C, read off a plot
T1 chain: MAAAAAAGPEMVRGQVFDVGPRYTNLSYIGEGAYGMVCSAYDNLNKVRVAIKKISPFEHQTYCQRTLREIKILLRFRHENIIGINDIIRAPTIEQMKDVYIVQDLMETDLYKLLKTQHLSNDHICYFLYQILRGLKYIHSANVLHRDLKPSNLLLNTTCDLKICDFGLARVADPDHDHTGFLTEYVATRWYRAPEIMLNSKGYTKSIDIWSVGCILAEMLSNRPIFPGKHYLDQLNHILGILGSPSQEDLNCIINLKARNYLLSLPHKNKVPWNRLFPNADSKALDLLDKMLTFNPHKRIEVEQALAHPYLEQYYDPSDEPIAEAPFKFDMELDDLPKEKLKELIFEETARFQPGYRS

inactive ERK2, P63086 = target: T2, inactive ERK2, P63086; experiment: as above; settings: chain shown with the change; no ATP; 9 µg immobilised ERK2, 3 µg arrestin in 60 µl; 50 mM Tris-HCl, pH 7.4, 100 mM KCl, 1 mM EGTA, 1 mM DTT; 20 min at 30°C; parent: est. 1.6; read off a plot
T2 chain: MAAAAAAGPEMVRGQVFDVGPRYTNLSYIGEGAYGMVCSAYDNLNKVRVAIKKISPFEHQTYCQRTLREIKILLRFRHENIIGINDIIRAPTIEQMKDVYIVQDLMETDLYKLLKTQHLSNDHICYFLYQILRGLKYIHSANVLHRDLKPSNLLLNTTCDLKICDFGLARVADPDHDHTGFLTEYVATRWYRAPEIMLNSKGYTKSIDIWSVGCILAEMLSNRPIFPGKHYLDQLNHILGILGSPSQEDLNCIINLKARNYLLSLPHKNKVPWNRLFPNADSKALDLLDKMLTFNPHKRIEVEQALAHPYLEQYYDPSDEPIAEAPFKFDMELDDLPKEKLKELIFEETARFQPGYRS

[2] = target: constitutively active MEK1, Q02750

Molecule: arrestin-2 (from UniProt P17870 1-418) (natural protein)
binding to inactive ERK2 as percent of that to the active form (inactive ERK2): 33%

B3: arrestin-3, P32120 1-420 (natural protein)
chain: MGEKPGTRVFKKSSPNCKLTVYLGKRDFVDHLDKVDPVDGVVLVDPDYLKDRKVFVTLTCAFRYGREDLDVLGLSFRKDLFIANYQAFPPTPNPPRPPTRLQERLLRKLGQHAHPFFFTIPQNLPCSVTLQPGPEDTGKACGVDFEIRAFCAKSLEEKSHKRNSVRLVIRKVQFAPEKPGPQPSAETTRHFLMSDRSLHLEASLDKELYYHGEPLNVNVHVTNNSTKTVKKIKVSVRQYADICLFSTAQYKCPVAQVEQDDQVSPSSTFCKVYTITPLLSNNREKRGLALDGKLKHEDTNLASSTIVKEGANKEVLGILVSYRVKVKLVVSRGGDVSVELPFVLMHPKPHDHIALPRPQSAATHPPTLLPSAVPETDAPVDTNLIEFETNYATDDDIVFEDFARLRLKGLKDEDYDDQFC
increase of ERK2 phosphorylation (32P incorporation) by purified MEK1 in the presence of 4.4 pmol arrestin-3, against no arrestin [2]: 41%

The next lines start with the values.

response ([1]; no ATP, parent: est. 4.6): 1.4 pmol | response ([1]; with 1 mM ATP, parent: est. 3.0): 1.7 pmol | response (inactive ERK2, P63086): 0.9 pmol
B1: arrestin-2, P17870 3A (protein)
chain: MGDKGTRVFKKASPNGKLTVYLGKRDFVDHIDLVEPVDGVVLVDPEYLKERRVYVTLTCAFRYGREDLDVLGLTFRKDLFVANVQSFPPAPEDKKPLTRLQERLIKKLGEHAYPFTFEIPPNLPCSVTLQPGPEDTGKACGVDYEVKAFCAENLEEKIHKRNSVRLVIRKVQYAPERPGPQPTAETTRQFLMSDKPLHLEASLDKEIYYHGEPISVNVHVTNNTNKTVKKIKISVRQYADICLFNTAQYKCPVAMEEADDTVAPSSTFCKVYTLTPFLANNREKRGLALDGKLKHEDTNLASSTLLREGANREILGIIVSYKVKVKLVVSRGGLLGDLASSDVAVELPFTLMHPKPKEEPPHREVPEHETPVDTNLIELDTNDDDAAAEDFARQRLKGMKDDKEEEEDGTGSPRLNDR

increase of ERK2 phosphorylation (32P incorporation) by purified MEK1 in the presence of 4.4 pmol arrestin-2, against no arrestin [2]: 33%
B2: arrestin-2, P17870 1-418 (natural protein)
chain: MGDKGTRVFKKASPNGKLTVYLGKRDFVDHIDLVEPVDGVVLVDPEYLKERRVYVTLTCAFRYGREDLDVLGLTFRKDLFVANVQSFPPAPEDKKPLTRLQERLIKKLGEHAYPFTFEIPPNLPCSVTLQPGPEDTGKACGVDYEVKAFCAENLEEKIHKRNSVRLVIRKVQYAPERPGPQPTAETTRQFLMSDKPLHLEASLDKEIYYHGEPISVNVHVTNNTNKTVKKIKISVRQYADICLFNTAQYKCPVAMEEADDTVAPSSTFCKVYTLTPFLANNREKRGLALDGKLKHEDTNLASSTLLREGANREILGIIVSYKVKVKLVVSRGGLLGDLASSDVAVELPFTLMHPKPKEEPPHREVPEHETPVDTNLIELDTNDDDIVFEDFARQRLKGMKDDKEEEEDGTGSPRLNDR
